Molecular target: TAP-tagged human presenilin 1 (human) (UniProt P49768)
Experiment: SEC-MALS; TAP-purified PS1 complex on Superdex S-200 10/300 in Tris buffer with 0.1% digitonin; protein and detergent masses by conjugate analysis; complex co-purified from cells

Substance: anterior pharynx 1 (aph1) (from UniProt Q96BI3 1-265) (natural protein)
- stoichiometry N: 1

— article PMC3887256
